Assay results reported in PMC7478166 (Hepatology (Baltimore, Md.), 2020).

T1: p52Shc lacking SH2 domain (p52ShcΔSH2), terminally biotinylated (biotin, terminal (end not stated))
T1 chain: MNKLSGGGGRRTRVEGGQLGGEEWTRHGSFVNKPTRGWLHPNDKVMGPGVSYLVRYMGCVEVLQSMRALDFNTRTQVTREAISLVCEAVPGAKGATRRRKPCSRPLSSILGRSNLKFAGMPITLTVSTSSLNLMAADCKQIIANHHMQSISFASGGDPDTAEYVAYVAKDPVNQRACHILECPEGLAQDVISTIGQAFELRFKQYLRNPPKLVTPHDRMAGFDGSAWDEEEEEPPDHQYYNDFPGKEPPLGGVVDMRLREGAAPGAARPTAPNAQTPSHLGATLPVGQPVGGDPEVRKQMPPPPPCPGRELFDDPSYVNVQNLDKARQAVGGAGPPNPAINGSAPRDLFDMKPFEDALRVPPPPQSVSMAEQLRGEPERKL

T2: full-length p52Shc, terminally biotinylated (UniProt P29353-2 1-473, biotin, terminal (end not stated))
T2 sequence (looked up): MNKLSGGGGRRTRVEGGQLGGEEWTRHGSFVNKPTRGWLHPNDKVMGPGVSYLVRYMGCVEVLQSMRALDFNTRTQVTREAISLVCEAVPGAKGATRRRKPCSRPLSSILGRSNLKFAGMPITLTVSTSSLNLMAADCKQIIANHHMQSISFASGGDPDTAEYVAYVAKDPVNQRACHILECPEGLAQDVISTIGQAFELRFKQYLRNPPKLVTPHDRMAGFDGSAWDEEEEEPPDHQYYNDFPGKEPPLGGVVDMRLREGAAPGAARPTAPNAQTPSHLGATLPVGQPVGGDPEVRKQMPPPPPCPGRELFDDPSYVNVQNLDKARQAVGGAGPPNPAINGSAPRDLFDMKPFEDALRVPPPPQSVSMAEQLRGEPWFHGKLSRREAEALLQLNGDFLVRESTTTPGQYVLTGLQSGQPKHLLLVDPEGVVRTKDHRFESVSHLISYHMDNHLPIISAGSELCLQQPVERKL

T3: non-phosphorylated full size p52Shc (treated with alkaline phosphatase) (UniProt P29353-2 1-473, biotin, terminal (end not stated))
T3 sequence (looked up): T2 sequence (looked up)

B1: p47^phox::His (not biotinylated) (natural protein, UniProt P14598 1-390, looked up)
chain: MGDTFIRHIALLGFEKRFVPSQHYVYMFLVKWQDLSEKVVYRRFTEIYEFHKTLKEMFPIEAGAINPENRIIPHLPAPKWFDGQRAAENRQGTLTEYCSTLMSLPTKISRCPHLLDFFKVRPDDLKLPTDNQTKKPETYLMPKDGKSTATDITGPIILQTYRAIANYEKTSGSEMALSTGDVVEVVEKSESGWWFCQMKAKRGWIPASFLEPLDSPDETEDPEPNYAGEPYVAIKAYTAVEGDEVSLLEGEAVEVIHKLLDGWWVIRKDDVTGYFPSMYLQKSGQDVSQAQRQIKRGAPPRRSSIRNAHSIHQRSRKRLSQDAYRRNSVRFLQQRRRQARPGPQSPGSPLEEERQTQRSKPQPAVPPRPSADLILNRCSESTKRKLASAV

Legend:
Test in all cases: BLI
[1] = target: p52Shc lacking the PTB domain (p52ShcΔPTB), terminally biotinylated
[2] = target: T1, p52Shc lacking SH2 domain (p52ShcΔSH2), …
[3] = target: T2, full-length p52Shc, terminally …
[4] = target: T3, non-phosphorylated full size p52Shc …

Molecule | fold weaker affinity than full-length p52Shc [1] | EC50 [2] | Kd [3] | Kd [4]
p47^phox::His (not biotinylated) (from UniProt P14598 1-390) (natural protein) | 10 fold |  |  | 
B1 |  | > 50 µM | 0.2 µM | 0.78 µM
